Consider seven molecules from publication PMC8789855, “Ion currents through Kir potassium channels are gated by anionic lipids” (Nature Communications, 2022).

Data set [1] deals with T1, KirBac3.1-SCS (Paramagnetospirillum magnetotacticum, UniProt D9N164, C71S/C262S).
T1 construct: prokaryotic Kir channel, native Cys119 kept as only cysteine, expressed in E. coli C41(DE3), Co2+ IMAC, homotetramer, reconstituted in liposomes or bilayers; PDB 6O9U is the native parent, 7N9L/7N9K are SCS and SCS-L124M
T1 sequence (D9N164 1-295 C71S/C262S): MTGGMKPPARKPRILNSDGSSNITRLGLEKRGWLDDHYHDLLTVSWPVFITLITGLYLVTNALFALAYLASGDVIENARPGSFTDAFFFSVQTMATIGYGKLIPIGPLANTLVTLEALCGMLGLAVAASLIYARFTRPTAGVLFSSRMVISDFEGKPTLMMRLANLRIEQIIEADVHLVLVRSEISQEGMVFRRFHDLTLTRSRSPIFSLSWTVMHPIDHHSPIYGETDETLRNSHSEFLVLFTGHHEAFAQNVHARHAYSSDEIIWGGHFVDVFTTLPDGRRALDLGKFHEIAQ
Nature of the data set: ACMA liposome K+ flux assay; single-channel recording; PEGylation gel shift. The format is biochemical. To be noted: covalent, at Cys119 near fenestration; activator; pH 8.5 (flux assay).

The target of data set [2] is T1, KirBac3.1-SCS. Nature of the data set: single-channel recording in planar lipid bilayer. The format is biochemical. The following applies: covalent, at Cys119 near fenestration; pH 7.4, 23 C, -80 mV.
Data set [3] concerns the molecule itself. Nature of the data set: native MS; 200 mM ammonium acetate pH 8.0, 0.5% C8E4 (2x CMC); modified Q-Exactive.
Data set [4] concerns the molecule itself. Put plainly: crystal structure; sitting drops, vapour diffusion, 4 mg/ml protein; PEG 4,000, PEG 8000, PEG 400, 90 mM HEPES pH 7.5, 1 mM TCEP and 50 mM EDTA or 10 mM CaCl2.
Data set [5] concerns the molecule itself. Put plainly: SEC; Superdex 200 10/30 in 20 mM TRIS pH 8.0, 150 mM KCl, 0.02% (w/v) DDM; fractions of the tetramer collected. A general note: SEC sorts molecules by how far they enter the pores of the column.

What is called stoichiometry N is a count of units in the complex or per binding partner.

Consider `CCCCCCCCCCSS(C)(=O)=O` [decyl-MTS], for which the “ACMA liposome K+ flux assay; single-channel recording; PEGylation gel shift” value in data set [1] was “bound decyl chains (C119-decyl) increased activity relative to wild type”. With `CCCCCCCCSS(C)(=O)=O` [octyl MTS-reagent (C119-octyl)], the “single-channel recording in planar lipid bilayer” value in data set [2] is “channels derivatised with one of three MTS-reagents to titrate the effect of chain length”.

B1: KirBac3.1 (wild type prokaryotic Kir channel) (natural protein)
chain: MTGGMKPPARKPRILNSDGSSNITRLGLEKRGWLDDHYHDLLTVSWPVFITLITGLYLVTNALFALAYLACGDVIENARPGSFTDAFFFSVQTMATIGYGKLIPIGPLANTLVTLEALCGMLGLAVAASLIYARFTRPTAGVLFSSRMVISDFEGKPTLMMRLANLRIEQIIEADVHLVLVRSEISQEGMVFRRFHDLTLTRSRSPIFSLSWTVMHPIDHHSPIYGETDETLRNSHSEFLVLFTGHHEAFAQNVHARHAYSCDEIIWGGHFVDVFTTLPDGRRALDLGKFHEIAQ
notes: KirBac3.1, prokaryotic inward rectifier K+ channel; Co-purifies with phospholipids (PG, PE); also called native KirBac3.1; wild type KirBac3.1; source: E. coli C41(DE3), purified (Co2+ IMAC, Superdex 200 SEC, in DDM)
Regarding B1, the “stoichiometry N” value in data set [3] is 4.

B2: KirBac3.1 L124M (on the C71S-C262S background) (natural protein)
chain: MTGGMKPPARKPRILNSDGSSNITRLGLEKRGWLDDHYHDLLTVSWPVFITLITGLYLVTNALFALAYLASGDVIENARPGSFTDAFFFSVQTMATIGYGKLIPIGPLANTLVTLEALCGMLGMAVAASLIYARFTRPTAGVLFSSRMVISDFEGKPTLMMRLANLRIEQIIEADVHLVLVRSEISQEGMVFRRFHDLTLTRSRSPIFSLSWTVMHPIDHHSPIYGETDETLRNSHSEFLVLFTGHHEAFAQNVHARHAYSSDEIIWGGHFVDVFTTLPDGRRALDLGKFHEIAQ
notes: KirBac3.1 with L124M on the SCS (C71S-C262S) background; Mutant cDNA bought from Genscript; also called Leu124M; source: E. coli C41(DE3), purified (Co2+ IMAC, Superdex 200 SEC, in DDM)
For the molecule B2, in data set [4], the binding result is recorded as “binds”.

B3: KirBac3.1-SCS (C71S-C262S background) (natural protein)
chain: MTGGMKPPARKPRILNSDGSSNITRLGLEKRGWLDDHYHDLLTVSWPVFITLITGLYLVTNALFALAYLASGDVIENARPGSFTDAFFFSVQTMATIGYGKLIPIGPLANTLVTLEALCGMLGLAVAASLIYARFTRPTAGVLFSSRMVISDFEGKPTLMMRLANLRIEQIIEADVHLVLVRSEISQEGMVFRRFHDLTLTRSRSPIFSLSWTVMHPIDHHSPIYGETDETLRNSHSEFLVLFTGHHEAFAQNVHARHAYSSDEIIWGGHFVDVFTTLPDGRRALDLGKFHEIAQ
notes: KirBac3.1 with two native cysteines mutated to serine; Mutant cDNA bought from Genscript; source: E. coli C41(DE3), purified (Co2+ IMAC, Superdex 200 SEC, in DDM)
For the molecule B3, in data set [4], the binding result is recorded as “binds”.

B4: KirBac3.1-SCS derivatised with decyl-MTS at Cys119 (natural protein)
chain: MTGGMKPPARKPRILNSDGSSNITRLGLEKRGWLDDHYHDLLTVSWPVFITLITGLYLVTNALFALAYLASGDVIENARPGSFTDAFFFSVQTMATIGYGKLIPIGPLANTLVTLEALCGMLGLAVAASLIYARFTRPTAGVLFSSRMVISDFEGKPTLMMRLANLRIEQIIEADVHLVLVRSEISQEGMVFRRFHDLTLTRSRSPIFSLSWTVMHPIDHHSPIYGETDETLRNSHSEFLVLFTGHHEAFAQNVHARHAYSSDEIIWGGHFVDVFTTLPDGRRALDLGKFHEIAQ
modifications: decyl chain from decyl-methylthiosulfonate on Cys119
notes: KirBac3.1 on the otherwise cysteine-less SCS background (C71S-C262S), native Cys119 kept and derivatised; also called C119-decyl; source: E. coli C41(DE3), purified, reacted with decyl-MTS, re-purified by SEC
On to B4, for which, in data set [5], the binding result was “binds”.

B5: KirBac3.1-SCS derivatised with hexyl-MTS at Cys119 (natural protein)
chain: MTGGMKPPARKPRILNSDGSSNITRLGLEKRGWLDDHYHDLLTVSWPVFITLITGLYLVTNALFALAYLASGDVIENARPGSFTDAFFFSVQTMATIGYGKLIPIGPLANTLVTLEALCGMLGLAVAASLIYARFTRPTAGVLFSSRMVISDFEGKPTLMMRLANLRIEQIIEADVHLVLVRSEISQEGMVFRRFHDLTLTRSRSPIFSLSWTVMHPIDHHSPIYGETDETLRNSHSEFLVLFTGHHEAFAQNVHARHAYSSDEIIWGGHFVDVFTTLPDGRRALDLGKFHEIAQ
modifications: hexyl chain from hexyl-methylthiosulfonate on Cys119
notes: KirBac3.1 on the otherwise cysteine-less SCS background (C71S-C262S), native Cys119 kept and derivatised; also called C119-hexyl; source: E. coli C41(DE3), purified, reacted with hexyl-MTS, re-purified by SEC
Regarding B5, the binding result in data set [5] was “binds”.
